B1: ER-retained plant-made recombinant human butyrylcholinesterase (prBChE-ER) (enzyme)
chain: EDDIIIATKNGKVRGMNLTVFGGTVTAFLGIPYAQPPLGRLRFKKPQSLTKWSDIWNATKYANSCCQNIDQSFPGFHGSEMWNPNTDLSEDCLYLNVWIPAPKPKNATVLIWIYGGGFQTGTSSLHVYDGKFLARVERVIVVSMNYRVGALGFLALPGNPEAPGNMGLFDQQLALQWVQKNIAAFGGNPKSVTLFGESAGAASVSLHLLSPGSHSLFTRAILQSGSFNAPWAVTSLYEARNRTLNLAKLTGCSRENETEIIKCLRNKDPQEILLNEAFVVPYGTPLSVNFGPTVDGDFLTDMPDILLELGQFKKTQILVGVNKDEGTAFLVYGAPGFSKDNNSIITRKEFQEGLKIFFPGVSEFGKESILFHYTDWVDDQRPENYREALGDVVGDYNFICPALEFTKKFSEWGNNAFFYYFEHRSSKLPWPEWMGVMHGYEIEFVFGLPLERRDNYTKAEEILSRSIVKRWANFAKYGNPNETQNNSTSWPVFKSTEQKYLTLNTESTRIMTKLRAQQCRFWTSFFPKVLEMTGNIDEAEWEWKAGFHRWNNYMMDWKNQFNDYTSKKESCVGLKDEL
notes: also called prBChE+KDEL; rBChE+KDEL
B2: plant-made recombinant human butyrylcholinesterase, apoplast-targeted (prBChE) (enzyme, UniProt P06276 29-602, looked up)
chain: EDDIIIATKNGKVRGMNLTVFGGTVTAFLGIPYAQPPLGRLRFKKPQSLTKWSDIWNATKYANSCCQNIDQSFPGFHGSEMWNPNTDLSEDCLYLNVWIPAPKPKNATVLIWIYGGGFQTGTSSLHVYDGKFLARVERVIVVSMNYRVGALGFLALPGNPEAPGNMGLFDQQLALQWVQKNIAAFGGNPKSVTLFGESAGAASVSLHLLSPGSHSLFTRAILQSGSFNAPWAVTSLYEARNRTLNLAKLTGCSRENETEIIKCLRNKDPQEILLNEAFVVPYGTPLSVNFGPTVDGDFLTDMPDILLELGQFKKTQILVGVNKDEGTAFLVYGAPGFSKDNNSIITRKEFQEGLKIFFPGVSEFGKESILFHYTDWVDDQRPENYREALGDVVGDYNFICPALEFTKKFSEWGNNAFFYYFEHRSSKLPWPEWMGVMHGYEIEFVFGLPLERRDNYTKAEEILSRSIVKRWANFAKYGNPNETQNNSTSWPVFKSTEQKYLTLNTESTRIMTKLRAQQCRFWTSFFPKVLEMTGNIDEAEWEWKAGFHRWNNYMMDWKNQFNDYTSKKESCVGL
notes: also called prBuChE; prBChE-AWF

Target: the molecule itself
Test: native gel or EMSA

| Protein | stoichiometry N |
| --- | --- |
| B1 | 4 |
| B2 | 4 |

Source: PMC4909763 (Frontiers in Plant Science, 2016)
